Results from PMC3792637 (Chembiochem, 2013).

Legend:
[1] = biological target: T1, S. aureus NAL (N-acetylneuraminic acid lyase) (Staphylococcus aureus, UniProt Q2G160); experiment: X-ray crystal structure, soak; assay type: binding; conditions: covalent Schiff base with Lys165; 100 mM sodium pyruvate soak
T1 sequence (Q2G160 1-293): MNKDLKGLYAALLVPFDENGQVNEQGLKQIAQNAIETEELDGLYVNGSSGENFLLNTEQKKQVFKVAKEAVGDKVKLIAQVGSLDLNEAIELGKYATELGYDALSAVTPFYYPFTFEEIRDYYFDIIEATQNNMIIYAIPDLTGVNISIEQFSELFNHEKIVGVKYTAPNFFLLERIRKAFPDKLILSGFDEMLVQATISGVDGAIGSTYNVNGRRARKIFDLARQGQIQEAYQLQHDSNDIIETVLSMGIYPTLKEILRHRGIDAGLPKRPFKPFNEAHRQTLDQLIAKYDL

[2] = biological target: K165-γ-thialysine S. aureus N-acetylneuraminic acid lyase (Staphylococcus aureus NCTC 8325) (UniProt Q2G160); experiment: crystal structure
[3] = biological target: K165C variant of S. aureus N-acetylneuraminic acid lyase (Staphylococcus aureus NCTC 8325) (UniProt Q2G160); experiment: crystal structure

CC(=O)C(=O)O [pyruvate]
X-ray crystal structure, soak [1]: the structure of the enzyme–pyruvate complex (PDB ID: 4AH7) was also determined

K165-γ-thialysine S. aureus N-acetylneuraminic acid lyase (from UniProt Q2G160 1-293) (enzyme)
stoichiometry N [2]: 4

K165C variant of S. aureus N-acetylneuraminic acid lyase (from UniProt Q2G160 2-293) (enzyme)
stoichiometry N [3]: 4
